# Data taken from patent publication US20080058263A1 (published 2008).
# Residue numbers refer to the chain shown, from its start.
# T1: VEGFR-3-Fc (UniProt P35916 25-328)
# T1 construct: domain: first three Ig domains; conditioned supernatant of 293T cells; also called VEGFR-3-Fc fusion protein; not shown: Fc fragment of the pIg vector
# T1 sequence (looked up): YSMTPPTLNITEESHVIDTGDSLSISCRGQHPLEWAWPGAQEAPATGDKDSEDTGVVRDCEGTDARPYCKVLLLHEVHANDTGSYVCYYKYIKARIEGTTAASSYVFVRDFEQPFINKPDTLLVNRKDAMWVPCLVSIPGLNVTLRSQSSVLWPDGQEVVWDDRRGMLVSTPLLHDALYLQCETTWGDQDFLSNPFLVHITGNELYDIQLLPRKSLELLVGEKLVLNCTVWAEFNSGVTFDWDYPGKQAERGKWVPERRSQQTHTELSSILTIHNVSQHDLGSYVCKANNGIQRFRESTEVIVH
# B1: 62-9 (ligand)
# chain: GQNHHEVVKFMDVYQRSYCHPREVCIDVGKEFGVATNTFFKPPCVSVYRCGGCCNDEGLECVPTEESNITMQIMRITVPLSQGPKPVTISFLQHNKCECRPKKD
# B2: 51-15 (ligand)
# chain: AHYNTEILKSIDNEWRKTQCMPIETLVDIFQEYPDEIEYIFKPSCVPLMRCGGCCNSEGLQCVPTEESNITMQIMRITVPLSQGPKPVTISFANHTSCRCMSKLD
# B3: 53-15 (ligand)
# chain: B2 chain with S44P, P47S, L48V, M49Y
# B4: 21-15 (ligand)
# chain: B2 chain with I23R, T25V, L26C, V27I, I29V, F30G, Q31K
# B5: 53-13 (ligand)
# chain: B2 chain with S44P, P47S, L48V, M49Y, S57D, Q61E
# B6: 62-3 (ligand)
# chain: GQNHHEVVKFMDVYQRSYCHPREVCIDVGKEFGVATNTFFKPPCVSVYRCGGCCNSEGLQCVPTEESNITMQIMRIKPHQGQHIGEMSFLQHNKCECRPKKD
# B7: 62-5 (ligand)
# chain: B6 chain with S56D, Q60E, L90A, Q91N, N93T, K94S, E96R, R98M, P99S, K101L
# B8: 62-7 (ligand)
# chain: B6 chain with L90A, Q91N, N93T, K94S, E96R, R98M, P99S, K101L
# B9: 52-1 (ligand)
# chain: AHYNTEILKSIDNEWRKTQCMPIETLVDIFQEFGVATNTFFKPPCVSVYRCGGCCNDEGLECVPTEESNITMQIMRIKPHQGQHIGEMSFLQHNKCECRPKKD
# B10: 52-7 (ligand)
# chain: B9 chain with D57S, E61Q, L91A, Q92N, N94T, K95S, E97R, R99M, P100S, K102L
# B11: 52-3 (ligand)
# chain: B9 chain with D57S, E61Q
# B12: 22-1 (ligand)
# chain: AHYNTEILKSIDNEWRKTQCMPREVCIDVGKEFGVATNTFFKPPCVSVYRCGGCCNDEGLECVPTEESNITMQIMRIKPHQGQHIGEMSFLQHNKCECRPKKDLVFEQKLISEEDLNSAVDHHHHHH
# B13: 53-5 (ligand)
# chain: AHYNTEILKSIDNEWRKTQCMPIETLVDIFQEYPDEIEYIFKPPCVSVYRCGGCCNDEGLECVPTEESNITMQIMRIKPHQGQHIGEMSFANHTSCRCMSKLD
# B14: 61-2 (ligand)
# chain: GQNHHEVVKFMDVYQRSYCHPREVCIDVGKEYPDEIEYIFKPSCVPLMRCGGCCNDEGLECMNTSTSYLSKTLFEIKPHQGQHIGEMSFLQHNKCECRPKKD
# B15: 31-2 (ligand)
# chain: GQNHHEVVKSIDNEWRKTQCMPIETLVDIFQEYPDEIEYIFKPSCVPLMRCGGCCNDEGLECVPTEESNITMQIMRIKPHQGQHIGEMSFANHTSCRCMSKLD
# B16: 71-1 (ligand)
# chain: GQNHHEVVKSIDNEWRKTQCMPREVCIDVGKEYPDEIEYIFKPSCVPLMRCGGCCNDEGLECVPTEESNITMQIMRIKPHQGQHIGEMSFLQHNKCECRPKKD
# B17: 62-4 (ligand)
# chain: GQNHHEVVKFMDVYQRSYCHPREVCIDVGKEFGVATNTFFKPPCVSVYRCGGCCNSEGLQCMNTSTSYLSKTLFEIKPHQGQHIGEMSFLQHNKCECRPKKD
# B18: 61-10 (ligand)
# chain: GQNHHEVVKFMDVYQRSYCHPREVCIDVGKEYPDEIEYIFKPSCVPLMRCGGCCNDEGLECMNTSTSYLSKTLFEITVPLSQGPKPVTISFLQHNKCECRPKKD
# B19: 63-10 (ligand)
# chain: B18 chain with S43P, P46S, L47V, M48Y
# B20: 61-12 (ligand)
# chain: B18 chain with D56S, E60Q
# B21: 61-16 (ligand)
# chain: B18 chain with D56S, E60Q, L92A, Q93N, N95T, K96S, E98R, R100M, P101S, K103L
# B22: 71-2 (ligand)
# chain: GQNHHEVVKSIDNEWRKTQCMPREVCIDVGKEYPDEIEYIFKPSCVPLMRCGGCCNDEGLECMNTSTSYLSKTLFEIKPHQGQHIGEMSFLQHNKCECRPKKD
# B23: 63-5 (ligand)
# chain: GQNHHEVVKFMDVYQRSYCHPREVCIDVGKEYPDEIEYIFKPPCVSVYRCGGCCNDEGLECVPTEESNITMQIMRIKPHQGQHIGEMSFANHTSCRCMSKLD
# B24: 53-9 (ligand)
# chain: AHYNTEILKSIDNEWRKTQCMPIETLVDIFQEYPDEIEYIFKPPCVSVYRCGGCCNDEGLECVPTEESNITMQIMRITVPLSQGPKPVTISFLQHNKCECRPKKD
# B25: 53-11 (ligand)
# chain: B24 chain with D57S, E61Q
# B26: 52-6 (ligand)
# chain: AHYNTEILKSIDNEWRKTQCMPIETLVDIFQEFGVATNTFFKPPCVSVYRCGGCCNDEGLECMNTSTSYLSKTLFEIKPHQGQHIGEMSFANHTSCRCMSKLD
# B27: 52-8 (ligand)
# chain: B26 chain with D57S, E61Q
# Target: T2, VEGFR-1-Fc (UniProt P17948 27-338)
# T2 construct: domain: first three Ig domains; expressed in Drosophila S2 cells, purified on Protein A sepharose; also called VEGFR-1-Fc fusion protein; not shown: Fc fragment from the Signal-pIgPlus vector
# Assay: receptor-Fc IP
# Procedure, shortened: (§1)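 Binding of ligand from sample supernatant measured by pentahistidine-antibody immunoprecipitation. IP mix: PBS with 1.5% BSA, 0.06% Tween 20, 3 μg/ml heparin and 400 ng/ml fusion protein, added 1:2 to sample supernatant.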
# T2 sequence (P17948 27-338): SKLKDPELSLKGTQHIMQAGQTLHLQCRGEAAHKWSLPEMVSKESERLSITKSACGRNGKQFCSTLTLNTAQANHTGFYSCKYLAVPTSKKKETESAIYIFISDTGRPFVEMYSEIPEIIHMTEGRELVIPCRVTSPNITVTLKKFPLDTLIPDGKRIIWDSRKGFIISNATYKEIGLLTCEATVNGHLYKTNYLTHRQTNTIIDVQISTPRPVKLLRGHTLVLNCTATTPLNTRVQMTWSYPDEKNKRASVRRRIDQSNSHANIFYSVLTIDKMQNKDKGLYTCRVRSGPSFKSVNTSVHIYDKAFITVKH
row,binding result,Binder
1,no binding,B1
2,no binding,B2
3,no binding,B3
4,no binding,B4
5,no binding,B5
6,no binding,B6
7,no binding,B7
8,no binding,B8
9,no binding,B9
10,no binding,B10
11,no binding,B11
12,no binding,B12
13,no binding,B13
14,no binding,B14
15,no binding,B15
16,no binding,B16
17,no binding,B17
18,no binding,B18
19,no binding,B19
20,no binding,B20
21,no binding,B21
22,no binding,B22
23,no binding,B23
24,no binding,B24
25,no binding,B25
26,no binding,B26
27,no binding,B27

# Target: T1, VEGFR-3-Fc
# Assay: receptor-Fc IP
# Procedure, shortened: as §1
row,binding result,Binder
1,no binding,B1
2,no binding,B2
3,no binding,B3
4,no binding,B4
5,no binding,B5
6,no binding,B6
7,no binding,B7
8,no binding,B8
9,no binding,B9
10,no binding,B10
11,no binding,B11
12,no binding,B12
13,no binding,B13
14,no binding,B14
15,no binding,B15
16,no binding,B16
17,no binding,B17
18,no binding,B18
19,no binding,B19
20,no binding,B20
21,no binding,B21
22,no binding,B22
23,no binding,B23
24,no binding,B24
25,no binding,B25
26,no binding,B26
27,no binding,B27

# Target: T3, VEGFR-2-Fc (UniProt P35968 20-322)
# T3 construct: domain: first 3 Ig domains; conditioned supernatant of 293T cells; also called VEGFR-2-Fc fusion protein; not shown: Fc fragment of the pIg vector
# Assay: receptor-Fc IP
# Procedure, shortened: as §1
# T3 sequence (P35968 20-322): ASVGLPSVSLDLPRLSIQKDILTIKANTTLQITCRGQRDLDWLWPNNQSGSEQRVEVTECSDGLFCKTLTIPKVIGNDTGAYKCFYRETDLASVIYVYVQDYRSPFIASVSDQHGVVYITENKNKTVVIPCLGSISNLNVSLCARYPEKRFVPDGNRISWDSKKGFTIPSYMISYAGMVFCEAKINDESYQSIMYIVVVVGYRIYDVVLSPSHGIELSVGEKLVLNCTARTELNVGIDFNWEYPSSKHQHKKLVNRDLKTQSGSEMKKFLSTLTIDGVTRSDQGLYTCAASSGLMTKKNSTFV
row,binding result,Binder
1,no binding,B1
2,no binding,B2
3,no binding,B3
4,no binding,B4
5,no binding,B5
6,no binding,B6
7,no binding,B7
8,no binding,B8
9,no binding,B9
10,no binding,B10
11,no binding,B11
12,no binding,B12
13,no binding,B13
14,no binding,B14
15,no binding,B15
16,no binding,B16
17,no binding,B17
18,no binding,B18
19,no binding,B19
20,no binding,B20
21,no binding,B21
22,no binding,B22
23,no binding,B23
24,no binding,B24
25,no binding,B25
26,no binding,B26
27,no binding,B27
